Measured values as given in patent US20220033515A1 (Genentech, published 2022).
Residue numbers refer to the chain shown, from its start. Where “and” joins values, the source holds several entries; their conditions need not be identical. Identical values can stand only once. Like-named read-outs stand apart in the source and are kept apart here.

Tests used:
[1] = target: T1, HER2 extracellular domain (Her2-ECD) (human, UniProt P04626 23-652); test: competitive phage ELISA
T1 construct: extracellular domain; also called hHER2 extracellular domain (ECD)

[2] = target: T2, human death receptor 5 (hDR5) (human, UniProt O14763 56-210); test: equilibrium KD; method and format (Fab or IgG) not given
T2 construct: also called DR5 long; hDR5-1f

[3] = target: T1, HER2 extracellular domain (Her2-ECD); test: equilibrium KD; method and format (Fab or IgG) not given; HER2, second number of the cell
[4] = target: T1, HER2 extracellular domain (Her2-ECD); test: Biacore SPR
hVEGF109 [5] = target: T3, hVEGF109 (human, UniProt P15692 214-315); test: Biacore SPR, steady state analysis (* for kon and koff)
T3 construct: range 8-109; also called VEGF (8-109)
T3 sequence (looked up): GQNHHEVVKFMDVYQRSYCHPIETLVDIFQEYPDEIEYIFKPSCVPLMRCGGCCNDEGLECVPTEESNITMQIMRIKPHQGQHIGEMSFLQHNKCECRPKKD

[6] = target: T1, HER2 extracellular domain (Her2-ECD); test: single-spot competitive phage ELISA
hVEGF109 [7] = target: T3, hVEGF109; test: single-spot competitive phage ELISA
[8] = target: T1, HER2 extracellular domain (Her2-ECD); test: single-spot competitive phage ELISA; remark: listed apart in the source
hVEGF109 [9] = target: T3, hVEGF109; test: single-spot competitive phage ELISA; remark: listed apart in the source
[10] = target: T4, human vascular endothelial growth factor (hVEGF) (human, UniProt P15692-4 27-191); test: competitive phage ELISA
T4 construct: also called hVEGF-A; human vascular endothelial growth factor A

[11] = target: T4, human vascular endothelial growth …; test: competitive phage ELISA; remark: listed apart in the source
hVEGF109 [12] = target: T3, hVEGF109; test: Biacore SPR
[13] = target: T2, human death receptor 5 (hDR5); test: competitive phage ELISA
[14] = target: T1, HER2 extracellular domain (Her2-ECD); test: competitive phage ELISA; remark: listed apart in the source
murine VEGF (mVEGF) = target: T5, murine VEGF (mVEGF) (murine, UniProt Q00731-2 27-190); test: ELISA on immobilised target
T5 sequence (looked up): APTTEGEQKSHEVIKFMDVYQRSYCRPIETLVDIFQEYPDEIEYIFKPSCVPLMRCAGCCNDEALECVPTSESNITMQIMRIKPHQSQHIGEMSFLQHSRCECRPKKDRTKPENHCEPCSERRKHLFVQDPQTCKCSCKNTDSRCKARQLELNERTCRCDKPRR

hVEGF109 [15] = target: T3, hVEGF109; test: ELISA on immobilised target
hVEGF165 = target: T6, hVEGF165 (human, UniProt P15692-4 27-191); test: ELISA on immobilised target
T6 construct: also called human VEGF165

hVEGF-D = target: T7, hVEGF-D (human, UniProt O43915 93-201); test: ELISA on immobilised protein
T7 sequence (looked up): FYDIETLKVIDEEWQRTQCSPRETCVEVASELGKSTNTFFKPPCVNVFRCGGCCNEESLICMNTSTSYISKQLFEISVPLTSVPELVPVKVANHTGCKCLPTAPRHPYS

[16] = target: T4, human vascular endothelial growth …; test: ELISA on immobilised protein
[17] = target: bovine serum albumin (BSA) (bovine, UniProt P02769 25-607); test: ELISA on immobilised protein
[18] = target: T1, HER2 extracellular domain (Her2-ECD); test: ELISA on immobilised protein
hVEGF-C = target: T8, hVEGF-C (human, UniProt P49767 103-227); test: ELISA on immobilised protein
T8 sequence (looked up): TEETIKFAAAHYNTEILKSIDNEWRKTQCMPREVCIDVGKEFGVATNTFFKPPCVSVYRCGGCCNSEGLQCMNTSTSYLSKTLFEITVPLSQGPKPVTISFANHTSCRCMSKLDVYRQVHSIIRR

[19] = target: T9, epidermal growth factor receptor extracellular domain (hEGFR) (human, UniProt P00533 25-645); test: ELISA on immobilised protein
T9 construct: extracellular domain

B1: bD1 (antibody, V domains shown)
VH: not shown
VL: DIQMTQSPSSLSASVGDRVTITCRASQNVSKHVAWYQQKPGKAPKLLIYWGSYLYSGVPSRFSGSGSGTDFTLTISSLQPEDFATYYCQQSYSGPPTFGQGTKVEIKR
IC50 [1]: 30 nM | Kd [2]: 14000 nM | Kd [3]: 200 nM

B2: bD2 (antibody, V domains shown)
VH: not shown
VL: DIQMTQSPSSLSASVGDRVTITCRASQNIRNGGGLAWYQQKPGKAPKLLIYSASFLYSGVPSRFSGSGSGTDFTLTISSLQPEDFATYYCQQHYTTPPTFGQGTKVEIKR
IC50 [1]: 17 nM | Kd [2]: 67000 nM | Kd [3]: 100 nM

B3: H4_D (antibody, V domains shown)
VH: not shown
VL: DIQMTQSPSSLSASVGDRVTITCRASQDIRSGSVAWYQQKPGKAPKLLIYWGSYLYSGVPSRFSGSGSGTDFTLTISSLQPEDFATYYCQQHYTTPPTFGQGTKVEIK
notes: also called H4_D hIgG
Kd [4]: 11 nM | koff [4]: 0.0012 s⁻¹ | kon [4]: 100000 M⁻¹ s⁻¹ | Kd (hVEGF109 [5]): 2300 nM

B4: H4_N (antibody, V domains shown)
VH: not shown
VL: B3 VL with D28N, G52A
notes: also called H4_N hIgG; H4_N Fab
Kd [4]: 10 nM and 6 nM | koff [4]: 0.0013 s⁻¹ | kon [4]: 140000 M⁻¹ s⁻¹ and 230000 M⁻¹ s⁻¹ | Kd (hVEGF109 [5]): 550 nM

B5: H5 (row of FIG.8a) (scFv, V domains shown)
VH: not shown
VL: B3 VL with S31G, W51G, H92Y
OD450 without competitor [6]: 2.87 | % signal, SSC +/- 50nM Vegf (hVEGF109 [7]): 88.8% | OD450 without competitor (hVEGF109 [7]): 2.77

B6: H8 (scFv, V domains shown)
VH: not shown
VL: DIQMTQSPSSLSASVGDRVTITCRASQEIFPYYVAWYQQKPGKAPKLLIYLGSSLYSGVPSRFSGSGSGTDFTLTISSLQPEDFATYYCQQGWDGPPTFGQGTKVEIK
OD450 without competitor [8]: 0.09 | % signal, SSC +/- 50 or 100nM VEGF (hVEGF109 [9]): 71.2% | OD450 without competitor (hVEGF109 [9]): 2.58 | IC50 [10]: 226 nM

B7: H11 (scFv, V domains shown)
VH: not shown
VL: B3 VL with R30M, S31L, Y54F
OD450 without competitor [6]: 2.79

B8: 3-4 (scFv, V domains shown, not shown: large carriers; small tags and cut ends)
VH: not shown
VL: DIQMTQSPSSLSASVGDRVTITCRASQEVYSYVAWYQQKPGKAPKLLIYPASSLYSGVPSRFSGSGSGTDFTLTISSLQPEDFATYYCQQGFWIGPPTFGQGTKVEIK
notes: also called c3-4
IC50 [11]: 32 nM | OD450 without competitor [8]: 0.05

B9: 3-7 (antibody, V domains shown)
VH: not shown
VL: B8 VL with E28Y, V29I, Y30W, S31R, P50W, A51G, F92L, I94Y, G95S
notes: also called 3-7 hIgG; 3-7 anti-hVEGF
Kd (hVEGF109 [12]): 3 nM and 7 nM | koff (hVEGF109 [12]): 0.0025 s⁻¹ and 0.0042 s⁻¹ | kon (hVEGF109 [12]): 800000 M⁻¹ s⁻¹ and 580000 M⁻¹ s⁻¹ | IC50 [11]: 16 nM

B10: H7 (scFv, V domains shown)
VH: not shown
VL: B8 VL with E28N, Y30W, S31D, Y32W, F92W, W93Y, G95A
notes: copies: 1 + 1
IC50 [10]: 60 nM

B11: H10 (scFv, V domains shown)
VH: not shown
VL: DIQMTQSPSSLSASVGDRVTITCRASQDVFTSVAWYQQKPGKAPKLLIYDASYLYSGVPSRFSGSGSGTDFTLTISSLQPEDFATYYCQQRYIWAPPTFGQGTKVEIK
OD450 without competitor [8]: 0.04 | % signal, SSC +/- 50 or 100nM VEGF (hVEGF109 [9]): 49% | OD450 without competitor (hVEGF109 [9]): 2.08 | IC50 [10]: 170 nM

B12: 4-2 (scFv, V domains shown)
VH: not shown
VL: DIQMTQSPSSLSASVGDRVTITCRASQRINSHTVAWYQQKPGKAPKLLIYWGSHLYSGVPSRFSGSGSGTDFTLTISSLQPEDFATYYCQQYSNRTPPTFGQGTKVEIK
IC50 [13]: > 1000 nM

B13: 4-4 (scFv, V domains shown)
VH: not shown
VL: DIQMTQSPSSLSASVGDRVTITCRASQVVSMTVAWYQQKPGKAPKLLIYGASSLYSGVPSRFSGSGSGTDFTLTISSLQPEDFATYYCQQYGSYSAPPTFGQGTKVEIK
IC50 [13]: > 1000 nM

B14: 4-6 (scFv, V domains shown)
VH: not shown
VL: DIQMTQSPSSLSASVGDRVTITCRASQSVSSAVAWYQQKPGKAPKLLIYSASSLYSGVPSRFSGSRSGTDFTLTISSLQPEDFATYYCQQYSSSPPTFGQGTKVEIK
IC50 [13]: 16 nM

B15: bH1 (antibody, V domains shown)
VH: not shown
VL: DIQMTQSPSSLSASVGDRVTITCRASQDIPRSISGYVAWYQQKPGKAPKLLIYWGSYLYSGVPSRFSGSGSGTDFTLTISSLQPEDFATYYCQQHYTTPPTFGQGTKVEIKR
notes: also called anti-hVEGF/Her2 bi-specific antibody
IC50 [14]: 10 nM | Kd [3]: 26 nM

B16: 4-1 IgG (antibody, V domains shown)
VH: not shown
VL: DIQMTQSPSSLSASVGDRVTITCRASQDIWNRRALAWYQQKPGKAPKLLIYEGSSLYSGVPSRFSGSGSGTDFTLTISSLQPEDFATYYCQQGGSYSSPPTFGQGTKVEIKR
notes: not shown: rest of the human IgG heavy chain constant region
binding result (murine VEGF (mVEGF)): no binding (tested: 100 nM (text)) | binding result (hVEGF109 [15]): no binding (tested: 100 nM (text)) | binding result (hVEGF165): no binding (tested: 100 nM (text)) | binding result (hVEGF-D): no binding (tested: 100 or 500 nM (text)) | binding result [16]: no binding (tested: 100 or 500 nM (text)) | binding result [17]: no binding (tested: 100 or 500 nM (text)) | binding result [18]: no binding (tested: 100 or 500 nM (text)) | binding result (hVEGF-C): no binding (tested: 100 or 500 nM (text)) | binding result [19]: no binding (tested: 100 or 500 nM (text))

B17: 4-5 IgG (antibody, V domains shown)
VH: not shown
VL: DIQMTQSPSSLSASVGDRVTITCRASQNVGRPVAWYQQKPGKAPKLLIYGGSSLYSGVPSRFSGSGSGTDFTLTISSLQPEDFATYYCQQYGSFGTPPTFGQGTKVEIKR
notes: as for B16
binding result (murine VEGF (mVEGF)): no binding (tested: 100 nM (text)) | binding result (hVEGF109 [15]): no binding (tested: 100 nM (text)) | binding result (hVEGF165): no binding (tested: 100 nM (text)) | binding result (hVEGF-D): no binding (tested: 100 or 500 nM (text)) | binding result [16]: no binding (tested: 100 or 500 nM (text)) | binding result [17]: no binding (tested: 100 or 500 nM (text)) | binding result [18]: no binding (tested: 100 or 500 nM (text)) | binding result (hVEGF-C): no binding (tested: 100 or 500 nM (text)) | binding result [19]: no binding (tested: 100 or 500 nM (text))

B18: 4-1 (antibody, V domains shown)
VH: not shown
VL: B16 VL
notes: also called 4-1 anti-hDR5
Kd [2]: 120 nM
